This assay has as its target cetuximab (human). As to the kind of experiment: BLI; cetuximab (20 µg/ml) immobilised on Fab2G sensors; scFv hFc4 25 to 200 nM in kinetics buffer; 1:1 Langmuir model.

B1: humanized scFv hFc4 (scFv, V domains shown)
VH: EVQLLESGGGLVQPGGSLRLSCAASGFTFSSYAMNWVRQAPGKGLEFVAGINAAGSGANYAPAVKGRATISRDNSPNTVYLQMNSLRAEDTAVYYCAKGSGSCNHCGGGHGGMIDEWGQGTLVTVSS
VL: SYELMQPPSVSVSPGQTARITCSGGSSTYYGWYQQKPGQAPVTVIYWDDERPSGIPERFSGSSSGNTVTLTINGVQAEDEADYYCGGYDSSVGIFGGGTKLTVL
Consider B1, for which the equilibrium dissociation constant (Kd) came out at 20.5 nM.

Source of the values: PMC8369199.
